Test results reported in the domain aggregation screens of Martell et al. (2025).

Test: soluble fraction after stress (log2 fold change); higher = more stays soluble; pooled small domains, quantitative proteomics
Details: stress: pH 4
In short: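 How much of each domain stays soluble after acid stress, expressed as a fold change, is used to gauge aggregation propensity. Pooled custom libraries of small domains underwent pH 4 stress before high-throughput quantitative proteomics. A higher log2 value means more of the domain stayed soluble.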

“HMPQKIVIQKGVVIKKRERSDAWQIYITVKGKKPIRKSANTDNVEKAKQMALTLFAEKNYKVENNLPIQ” and “HMPQLSNEEQKIVDALEGSDGKQINLITVETNIPMARLMSVLFEMEMRGIVKSLNGARYKLN” are within 0.2 log units of each other in “soluble fraction (log2)” value: -0.0334 for the first, -0.026 for the second.

Compared with “HMPQTDDSEPLGKYGRMRLAYLKNQRPVLYNQMLLNGTLWPHLQDVQKTAYEWLERTMTTLLDK”, “HMPRDQQENIYLLEKGKRLYEEHLGDQRQIIGHRIMIFERILESQDHAQIRRAQSEFAEFLSHYDG” is higher in “soluble fraction (log2)” value: -0.581 for the first, 0.111 for the second.

First: HMPRDYYAVLEVSVSSTPVQIRQAYQRLARRYSPDVNFLDRDTEALFEEIVEAYRVLSNPTARTLYDRG
Second: HMPREQQENVYLLEKAKRLYEEYLGDQRQTIGHALAQFERVLESQDPAAIRRAQKEFGEFLERYDG
The “soluble fraction (log2)” value of the first is lower: -3.04 for the first, -0.139 for the second.

First: HMPREVKLPPDLLDALEASPEAKAFFLQLSYTHQKEYAQWIEEAKQEATRQRRLEKTVQMLLEGRRT
Second: HMPRFDINFKVGEVVTIKGGSFDGQQGEISEIDHEHGKIKVMLEVLGRLTPVEVEHTEIEKI
The “soluble fraction (log2)” value of the first is higher: -0.0407 for the first, -0.623 for the second.

First: HMPRKLDDQLQEQIRYLKSNYPRMSAAGIFRQLQDNGSIKHGDVSESTINRYVNLLSIEMKTTT
Second: HMPRNMTFAIRGEYITLDALLKAVGAADSGAQAKHRIAEGEVTVDGVVETRKTRKLRGGETVVVDDLAVVL
The “soluble fraction (log2)” value of the first is higher: 0.149 for the first, -1.4 for the second.

Compared with “HMPRQREVPDVSGWTEQHAKVYLEALGYRVKVIYLEVSSFDKGLVQETSPAKGSKVEEGDTIDLRVSNQE”, “HMPRSLGADLRAIRKGRRLTLTDMAEALDRSVGWVSQVERDISTPSISDLRRMAEILDVPVSLLFG” is lower in “soluble fraction (log2)” value: 0.299 for the first, -1.59 for the second.

Going from “HMPSARELLATNIVRLRKEKGWSQEDLALEAGLHRTFVAHVERHARNISLDNIERLANALQVNVHILLL” to “HMPSEDELAERLRGAIRQGDILNEGRMPPERALAEHFGVSRARLRLALGLLQEDGTIYRRHGQGTFAT”, the “soluble fraction (log2)” value rises from -1.26 to -0.0169.

Going from “HMPSIGKNILYYRKKRNMTIDELSKKSGVSKSMLSQVEQEKTNPTVVTVWKIARSLDVSINQLLQT” to “HMPSKKHARWIELEARKFMADNEDAVSDLHELRTRAANFAALKTSTLPVDQHRAIVAGFVARVNELGRRI”, the “soluble fraction (log2)” value falls from 0.136 to -0.19.

First: HMPSLSPDETVVVDALRQQNDMQINMISVKTNLPIARLSAILFEMELKGVLKPLAGGVYHLL
Second: HMPSPEMLKETEKRKAEEIYRSQINLFIDDYHRLKGQYPLLEDIIDNKKDSIPIEILREISISILKNYFE
The “soluble fraction (log2)” value of the first is higher: -0.0639 for the first, -0.926 for the second.

Compared with “HMPSPEVELLEDLLSKTDEAEVEAAFHENQALVNDEFKAMLGSLIQELSKTQEADPEIIARIRFIQKLT”, “HMPSREDFAYDSIKEAILSGELLPNQKISLSDLANKLGISIIPVNSAVGRLVAEGLVRQDPHHSPYVV” is higher in “soluble fraction (log2)” value: -1.27 for the first, -0.31 for the second.

“HMPSRPIQVASFSKEDNAKRAAEALAKIGVTATPQKSEKAGKAVWGVVVTGDDAMLQKIKDAGFADAYFL” and “HMPSTKDGIKEFLSSGAMKGIGRKTASAIVSRFGIDTLKIIEQEPQRLTEVSGIGKKTAQRIAEAFGKH” are within 0.2 log units of each other in “soluble fraction (log2)” value: 0.22 for the first, 0.201 for the second.

Compared with “HMPSTVRVPDVAETSLSEAKKTIEESGLEVGAIHKVNNDTVKKNHVIKTSPTIGSAKKEGSAIDIYVSKG”, “HMPSTVSVPDVAGSSLSEAKTTIKSSGLKVGTVHKVSSDTVESGYVIKTSPTAGSSKKEGSSIDIYVSKG” is lower in “soluble fraction (log2)” value: 0.201 for the first, -0.026 for the second.

Going from “HMPTANFPAMAEALKKQYGPPTGEEETSWTHRLGGVFDIKIQSWNTPQGEMVLRSRGAAMDAGML” to “HMPTEPTARELEVTTLLAQGLSNREIAGALFISEHTVRNHLGHVFSKLGVSSRTQAVVRAGQLGWLR”, the “soluble fraction (log2)” value falls from 0.283 to -0.798.

Compared with “HMPTKSDLLQWIKDRASKMGGAFTNSGAYALADAGVDGPRALSSEINKLLTYVNWERSVEADDVIRL”, “HMPTLTPFDVARIENAINPRLNLETAAKLKPWIAAGYTAQETADGTGFSPDTVKKYAAIFRK” is higher in “soluble fraction (log2)” value: -0.296 for the first, 0.146 for the second.

Compared with “HMPTQTEELRRRIVADVNAGEPGAKLGSERELAERYGTSRSSLRQVLAALQEAGLIDRVIGRSGGIFISH”, “HMPTSILEKILNSAAEQFTRYGFKTITMDDIARHAGVSKKTLYQHFETKLDIIVAAVTHFHTMKF” is lower in “soluble fraction (log2)” value: 0.33 for the first, -1.65 for the second.

First: HMPTYEEAKTYLKAAFEHIVAAGRDVGELVEFAFAKSGDAVAPYLRRFLSDVHEGRITIQGLTESAKLAV
Second: HMPVEQVWHIAEAGKTKGPFSRASMGRMSADGALTRDTLVWTAGQDGWKKAADVTALATLFT
The “soluble fraction (log2)” value of the first is lower: -0.463 for the first, -0.0499 for the second.

First: HMPVFYATNRQKTTIHNLKRKKGLDDDAYRATIYSFTHGRTDSSKYMYKYEAAELIQKWLDPE
Second: HMPVGVPGVVYNTDSLNVRKGAGTNYDIVSKLKRGSVIEVLEQTAVDGTVWGRIAEGWVNMEYVSL
The “soluble fraction (log2)” value of the first is higher: -0.157 for the first, -0.363 for the second.

First: HMPVSDLQSALRNTLSKGDATDPAFRQRVYRAAMDALERATGSESDPQRRSEQKQRLIAVIRDMEASYRR
Second: HMPVTKSARQSRIGELIAREPVRSQSELAARLADDGIVVSQGTLSKDLLELGAVRVRTSSGELAYALL
The “soluble fraction (log2)” value of the first is higher: 0.101 for the first, -0.258 for the second.

Compared with “HMPWLIAVTVDGVNLPRFLRRAGEMGLLLTGVRIRGKHLSAFAREDDVPPLRMMAENGGWRFSVGN”, “HMPYEHQRAVGALIRRLREQQGWSQRALADWVHMDQSAVSRVETGQRSVTAEELGRFADALHVSTDALVR” is higher in “soluble fraction (log2)” value: -0.302 for the first, 0.059 for the second.

First: HMPYFLKQSNTRSKGLYLQIYHSFYVPGKGSRNKSYKAIGYVSELIKNGIEDPITYAKNLVDELNNNSSTP
Second: HMPYPSPADLARMDELIAWVKDEGRLPRDRSGQRSERSMARWLAARRREAAEGTLDPAYRDGLAQVPGWR
The “soluble fraction (log2)” value of the first is higher: 0.226 for the first, -0.304 for the second.

First: HMPYSAAVTFLDDAKQPMVNYNYRLIAENGIEVSGITDEFGKTQPIQTDQREKVDLYIADLPN
Second: HMQAALEVQASAGVLAPVPPDQRQALLDTLAQDPRPGYQHEAGRVYGFPFGGFEVRFTVSDGLLTVLSAYK
The “soluble fraction (log2)” value of the first is higher: -0.37 for the first, -1.16 for the second.

Compared with “HMQAATQVNIVGLFSNKAVVIINGGKPKTLSVGQTSEGVKLLAADSQTATLQIEGKTQQLGMGQAASVGG”, “HMQAESLTVVRSAELKADRFLDAATLQTLQTGQVVESLRTESGWVQVRIAGQQGWVRAMNVKGA” is lower in “soluble fraction (log2)” value: 0.107 for the first, -0.569 for the second.

Compared with “HMQAITVNNEGKIFLNTIPVTLEELSSKLESLKSSTPEFPVVIRGDSGSQYQGIMDVLNVVGRLGITQIGL”, “HMQAKDVEVPDYVGKSFVSIKENNPNDFKFEVKSEYDESKEMGVILDQEPKGGSMKVKSGSTITVTV” is higher in “soluble fraction (log2)” value: -1.08 for the first, 0.0655 for the second.

Compared with “HMQASPADLLSDRELEVFQLTGEWKTTRQIAQELHLSVKTIEYYREQIKRKLNLKSAAELTQHATAWVQRG”, “HMQDAVASEKIQLMSEALHARDTGDLLLAKEKVEKLIALAPNDKNIQALLLTINQSIEDKGL” is lower in “soluble fraction (log2)” value: ≥ 0.43 for the first, -0.0958 for the second.

First: HMQDIDIVDLKRISELIYQKYNYDFRNYAMSSFKRRVQRIIELKKLTVDGLIKRLNDTPSFINEFLDELTV
Second: HMQDNLKKYMDKLSQRDAELIVYKYLWNMSEKEISEMFHIKQEQVHVYVGRAKKRLFKIIKKEME
The “soluble fraction (log2)” value of the first is lower: -0.2 for the first, 0.111 for the second.

Going from “HMQDRDKNIEEGRQLVLHEMDRLDLVDEPLHDVARQLNMKAVEDMFAAVGAGDLRLGQIIHQLLKQADTN” to “HMQDSIYYAQYRINIRNMPSSEGMVISRASVGEALEVLDWQEQWSKVRKQSGVEGYVASRLLTK”, the “soluble fraction (log2)” value rises from -1.11 to -0.64.

Going from “HMQDTIDLVIQVNGKLRGQMNVPKDTDRATIEQLAINLENVQKIVAGNAIKKIIIVPGRLINIVVSKNL” to “HMQDTYQVKLLTNLNIRKSPNGTIVQKGGAKKGIIYTIVETSGTWGRLKSNAGWISVSDKYVTK”, the “soluble fraction (log2)” value rises from -0.209 to 0.102.

“HMQDVKRYLVNSNQLNVRTGPGKEFEISESLNKGDAVTLLHKESNGWWEVITSTGQGYVYSSMLTKDPW” and “HMQDVVERIKKYKQLFSITSEELSKRSGIPLGTLNKILSSSTKSIKTETLAAIAKGLDVSVSDLVGREK” are within 0.2 log units of each other in “soluble fraction (log2)” value: 0.0322 for the first, -0.0189 for the second.

“HMQEAGKWLKKLRTERKITLEQLSKKTGLSVGFLSQFERGLTSIAIDTLEKIAAVFNVTIDYFISP” and “HMQEEFVAPDVKDGAIVLHKAFGEGTVTKIDKAQKHIRVTFGVGEKTFIFPDAFKQGFLRMKG” are within 0.2 log units of each other in “soluble fraction (log2)” value: 0.22 for the first, 0.222 for the second.

Going from “HMQEERLTFDTLLGISGIGPRLALAVLSRFTPGSLAAAVDAGDTKAFSAVPGVGNRTASRIILELKGKL” to “HMQEGPGLVPDFRGQTMREVLRGGQSLGVRVAVDGTGLAVAQTPEPGSPLNKVSQVTVSFRPP”, the “soluble fraction (log2)” value rises from -0.238 to 0.22.

Going from “HMQEINLIGVTGNDLERSALVKLLDGEIIKLSVGDNLNGGRVVDISAVTLTYLKSGQSITLKLPK” to “HMQELGVISEGKYNIELNMVSWNDREPKYDIRSWAPDHSRMGKGISLTEEEMERLVELWNTRNE”, the “soluble fraction (log2)” value falls from 0.116 to -0.802.

Going from “HMQELKWERNYKLVQDYIKQYGVLPSKNTKYANVSIGRWLTNQHELVKEDNLAPERFEKIKELDT” to “HMQENDLGAVEKIVDDVLHDPKNAQAVADFKAGSEKVLGFLTGQVMKASRGKANPSVVQEVLRQKLKN”, the “soluble fraction (log2)” value falls from 0.303 to -0.0461.

Compared with “HMQENVIIYPNPTKSVIYLSEKVEFILYNILGEIIFIGDNNKIDLNSFDNGVYIFESGNVRTQIIK”, “HMQEQIVQGIVKYFDAEKQFGFIAGDDGVDRFFNAKSIQGNAVKTGDRVRFLAISHIRGPRALKISA” is lower in “soluble fraction (log2)” value: 0.204 for the first, -0.566 for the second.

“HMQEQSSYVGQFGTAATTLRPSGTVELEDGTRIDVVTVGEFIEKGEPVQVVRKDGTWLVVEKRRSK” and “HMQERKYTVSFNTNGGSTINDQKITSGNVIISPGAPKRSGYTFVGWYYHGQPFDLNTKINQDYVLVAKWIK” are within 0.2 log units of each other in “soluble fraction (log2)” value: 0.122 for the first, 0.207 for the second.

Going from “HMQETILFGQQKAINNLSSDTGLSENDLDSYLKKRYKKPLYQLTQSEGADIINGFQDGSLSKNSILDYIKP” to “HMQEVKVRLKPDYLGEVLIKVISDKGELKAELFVSNSQVRSLLRAYAVEFQNQIRDQGYNFSEINVYR”, the “soluble fraction (log2)” value falls from 0.22 to -0.518.

First: HMQFAEIPNFSEMALQILRLQADGLSITKIAEALHMNPRTVKYHAQENYRKLQASNKSEALLAARNLNL
Second: HMQFEIGDTVRVHVNIREGERERVQMFEGTVIAKRGSGVSETFTVRRVSYGVGVERVFPVNSPNV
The “soluble fraction (log2)” value of the first is lower: -0.418 for the first, 0.22 for the second.

Going from “HMQFETVQDAFNHYRNASLEEIESRAAEIKGIIESDPEADVRALNIEIEGLHQAKQNILEKQKTK” to “HMQFLGKVTVTHARQANLRAQPSMDAAIVGKVNPGEVYNVVSIPKTSWYEIQLQNGKTVFIAAGMVSFRM”, the “soluble fraction (log2)” value rises from -0.064 to 0.209.

First: HMQFSAVVLDMETRRQVAGVAVYINPKGVVKTDMRGRFVIDGAFNSVTLVRQGYESLTLERSEMTDSIWM
Second: HMQGEASDAQLKAIFAIARKLGITDDFEVHRKASRLAGVPEPEVLPSLKSLTYAQASAVIKALQEELE
The “soluble fraction (log2)” value of the first is lower: -1.07 for the first, -0.0238 for the second.
